In paper PMC10219423, “Characterization of a New Thermostable and Organic Solution-Tolerant Lipase from Pseudomonas fluorescens and Its Application in the Enrichment of Polyunsaturated Fatty Acids” (International Journal of Molecular Sciences, 2023) one finds Km data, which are given here for one substance.

The series has as its system CCCCCCCC(=O)Oc1ccc([N+](=O)[O-])cc1. The experiment in a line: purified protein. To be noted: Tris-HCl 50 mM, pH 8.0, 40 °C, ethanol and acetonitrile present, 0.01-2.0 mM substrate. It counts as biochemical, Pseudomonas fluorescens.

As usually defined, the Km is the concentration of substrate that gives half-maximal velocity. Turning to LipB (Pseudomonas fluorescens), the Km turned out to be 810 µM.
